Results from the supplement of paper PMC5998384.

Experiments:
HeLa Kyoto [1] = assay: solubility in G1/S (NP-40 vs SDS abundance) (log2 ratio); higher = more soluble; conditions: cell cycle stage: G1/S
HeLa Kyoto [2] = assay: melting temperature (median over replicates), in situ; higher = more thermally stable
HeLa Kyoto [3] = assay: solubility change mitosis vs G1/S (difference of NP-40 vs SDS log2 ratios) (log2 ratio difference); higher = more soluble in mitosis
HeLa Kyoto [4] = assay: thermal stability score vs G1/S (z-score of summed log2 fold changes over temperatures); higher = more thermally stable than in G1/S
[5] = cell cycle stage: early G1 (4.5 h after nocodazole release)
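Wherever melting temperature (median over replicates), in situ is given: HeLa Kyoto cells synchronized by double thymidine or nocodazole block, proteins quantified by TMT10plex mass spectrometry, three independent biological replicates.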
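Wherever solubility change mitosis vs G1/S (difference of NP-40 vs SDS log2 ratios) is given: synchronized HeLa Kyoto cells (double thymidine block for G1/S, nocodazole release for mitosis), protein amounts in NP-40 versus SDS lysates quantified by mass spectrometry, three biological replicates.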
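Wherever solubility in G1/S (NP-40 vs SDS abundance) is given: HeLa Kyoto cells arrested at G1/S by double thymidine block, proteins quantified by TMT10plex mass spectrometry in mild NP-40 versus SDS extracts, three biological replicates.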
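Wherever thermal stability score vs G1/S (z-score of summed log2 fold changes over temperatures) is given: synchronized HeLa Kyoto cells, proteins quantified by TMT10plex mass spectrometry, three biological replicates, mitosis taken 0.5 h after nocodazole release, G1/S directly after double thymidine block.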

Sequence | solubility in G1/S (log2) (HeLa Kyoto [1]) | melting temperature (HeLa Kyoto [2]; cell cycle stage: G1/S) | melting temperature (HeLa Kyoto [2]; cell cycle stage: mitosis) | solubility change mitosis (log2) (HeLa Kyoto [3]) | thermal stability score (HeLa Kyoto [4]; [5]) | thermal stability score (HeLa Kyoto [4]; cell cycle stage: mitosis)
MAASAKRKQEEKHLKMLRDMTGLPHNRKCFDCDQRGPTYVNMTVGSFVCTSCSGSLRGLNPPHRVKSISMTTFTQQEIEFLQKHGNEVCKQIWLGLFDDRSSAIPDFRDPQKVKEFLQEKYEKKRWYVPPEQAKVVASVHASISGSSASSTSSTPEVKPLKSLLGDSAPTLHLNKGTPSQSPVVGRSQGQQQEKKQFDLLSDLGSDIFAAPAPQSTATANFANFAHFNSHAAQNSANADFANFDAFGQSSGSSNFGGFPTASHSPFQPQTTGGSAASVNANFAHFDNFPKSSSADFGTFNTSQSHQTASAVSKVSTNKAGLQTADKYAALANLDNIFSAGQGGDQGSGFGTTGKAPVGSVVSVPSQSSASSDKYAALAELDSVFSSAATSSNAYTSTSNASSNVFGTVPVVASAQTQPASSSVPAPFGATPSTNPFVAAAGPSVASSTNPFQTNARGATAATFGTASMSMPTGFGTPAPYSLPTSFSGSFQQPAFPAQAAFPQQTAFSQQPNGAGFAAFGQTKPVVTPFGQVAAAGVSSNPFMTGAPTGQFPTGSSSTNPFL [AGFG1] | 0.0305 | 50.9 °C | 52.1 °C | -0.0484 | 0.14 | -0.191
MMSDASDMLAAALEQMDGIIAGSKALEYSNGIFDCQSPTSPFMGSLRALHLVEDLRGLLEMMETDEKEGLRCQIPDSTAETLVEWLQSQMTNGHLPGNGDVYQERLARLENDKESLVLQVSVLTDQVEAQGEKIRDLEFCLEEHREKVNATEEMLQQELLSRTSLETQKLDLMAEISNLKLKLTAVEKDRLDYEDKFRDTEGLIQEINDLRLKVSEMDSERLQYEKKLKSTKSLMAKLSSMKIKVGQMQYEKQRMEQKWESLKDELASLKEQLEEKESEVKRLQEKLVCKMKGEGVEIVDRDIEVQKMKKAVESLMAANEEKDRKIEDLRQCLNRYKKMQDTVVLAQGKDGEYEELLNSSSISSLLDAQGFSDLEKSPSPTPVMGSPSCDPFNTSVPEEFHTTILQVSIPSLLPATVSMETSEKSKLTPKPETSFEENDGNIILGATVDTQLCDKLLTSSLQKSSSLGNLKKETSDGEKETIQKTSEDRAPAESRPFGTLPPRPPGQDTSMDDNPFGTRKVRSSFGRGFFKIKSNKRTASAPNLAETEKETAEHLDLAGASSRPKDSQRNSPFQIPPPSPDSKKKSRGIMKLFGKLRRSQSTTFNPDDMSEPEFKRGGTRATAGPRLGWSRDLGQSNSDLDMPFAKWTKEQVCNWLMEQGLGSYLNSGKHWIASGQTLLQASQQDLEKELGIKHSLHRKKLQLALQALGSEEETNHGKLDFNWVTRWLDDIGLPQYKTQFDEGRVDGRMLHYMTVDDLLSLKVVSVLHHLSIKRAIQVLRINNFEPNCLRRRPSDENTIAPSEVQKWTNHRVMEWLRSVDLAEYAPNLRGSGVHGGLMVLEPRFNVETMAQLLNIPPNKTLLRRHLATHFNLLIGAEAQHQKRDAMELPDYVLLTATAKVKPKKLAFSNFGNLRKKKQEDGEEYVCPMELGQASGSASKKGFKPGLDMRLYEEDDLDRLEQMEDSEGTVRQIGAFSEGINNLTHMLKEDDMFKDFAARSPSASITDEDSNV [PPFIBP1] | 0.425 | 49.4 °C | 49 °C | -0.0985 | 0.0729 | 0.352
MPLVTRNIEPRHLCRQTLPSVRSELECVTNITLANVIRQLGSLSKYAEDIFGELFTQANTFASRVSSLAERVDRLQVKVTQLDPKEEEVSLQGINTRKAFRSSTIQDQKLFDRNSLPVPVLETYNTCDTPPPLNNLTPYRDDGKEALKFYTDPSYFFDLWKEKMLQDTKDIMKEKRKHRKEKKDNPNRGNVNPRKIKTRKEEWEKMKMGQEFVESKEKLGTSGYPPTLVYQNGSIGCVENVDASSYPPPPQSDSASSPSPSFSEDNLPPPPAEFSYPVDNQRGSGLAGPKRSSVVSPSHPPPAPPLGSPPGPKPGFAPPPAPPPPPPPMIGIPPPPPPVGFGSPGTPPPPSPPSFPPHPDFAAPPPPPPPPAADYPTLPPPPLSQPTGGAPPPPPPPPPPGPPPPPFTGADGQPAIPPPLSDTTKPKSSLPAVSDARSDLLSAIRQGFQLRRVEEQREQEKRDVVGNDVATILSRRIAVEYSDSEDDSSEFDEDDWSD [WASF2] | 0.196 | 51.8 °C | 51.5 °C | -0.146 | 0.736 | 1.04
MDIRKFFGVIPSGKKLVSETVKKNEKTKSDEETLKAKKGIKEIKVNSSRKEDDFKQKQPSKKKRIIYDSDSESEETLQVKNAKKPPEKLPVSSKPGKISRQDPVTYISETDEEDDFMCKKAASKSKENGRSTNSHLGTSNMKKNEENTKTKNKPLSPIKLTPTSVLDYFGTGSVQRSNKKMVASKRKELSQNTDESGLNDEAIAKQLQLDEDAELERQLHEDEEFARTLAMLDEEPKTKKARKDTEAGETFSSVQANLSKAEKHKYPHKVKTAQVSDERKSYSPRKQSKYESSKESQQHSKSSADKIGEVSSPKASSKLAIMKRKEESSYKEIEPVASKRKENAIKLKGETKTPKKTKSSPAKKESVSPEDSEKKRTNYQAYRSYLNREGPKALGSKEIPKGAENCLEGLIFVITGVLESIERDEAKSLIERYGGKVTGNVSKKTNYLVMGRDSGQSKSDKAAALGTKIIDEDGLLNLIRTMPGKKSKYEIAVETEMKKESKLERTPQKNVQGKRKISPSKKESESKKSRPTSKRDSLAKTIKKETDVFWKSLDFKEQVAEETSGDSKARNLADDSSENKVENLLWVDKYKPTSLKTIIGQQGDQSCANKLLRWLRNWQKSSSEDKKHAAKFGKFSGKDDGSSFKAALLSGPPGVGKTTTASLVCQELGYSYVELNASDTRSKSSLKAIVAESLNNTSIKGFYSNGAASSVSTKHALIMDEVDGMAGNEDRGGIQELIGLIKHTKIPIICMCNDRNHPKIRSLVHYCFDLRFQRPRVEQIKGAMMSIAFKEGLKIPPPAMNEIILGANQDIRQVLHNLSMWCARSKALTYDQAKADSHRAKKDIKMGPFDVARKVFAAGEETAHMSLVDKSDLFFHDYSIAPLFVQENYIHVKPVAAGGDMKKHLMLLSRAADSICDGDLVDSQIRSKQNWSLLPAQAIYASVLPGELMRGYMTQFPTFPSWLGKHSSTGKHDRIVQDLALHMSLRTYSSKRTVNMDYLSLLRDALVQPLTSQGVDGVQDVVALMDTYYLMKEDFENIMEISSWGGKPSPFSKLDPKVKAAFTRAYNKEAHLTPYSLQAIKASRHSTSPSLDSEYNEELNEDDSQSDEKDQDAIETDAMIKKKTKSSKPSKPEKDKEPRKGKGKSSKK [RFC1] | -0.641 | 47.2 °C | 49.5 °C | 0.447 | 3.61 | 4.94
